Data taken from patent US20230242586A1, “RAS INHIBITORS AND USES THEREOF” (The Regents of the University of California, priority 2020, published 2023).

Target: biotinylated wildtype K-Ras·GppNHp (His-Avi-TEV-KRAS (wildtype)) (human)
Experiment: TR-FRET Ras-Raf interaction assay (competition); reference K-Ras(G12D)

Question: Which fold IC50 on wildtype K-Ras against that for K-Ras(G12D) does the source give for “bicyclic variant of KD2 (Val3 and Arg9 replaced with azidoalanine and propargylglycine) (peptide)” here?
Answer: The fold IC50 on wildtype K-Ras against that for K-Ras(G12D) was over 20 fold.

Question: “bicyclic variant of KD2 (Val3 and Arg9 replaced with two cysteines) (peptide)” was tested. Which fold IC50 on wildtype K-Ras against that for K-Ras(G12D) did it give?
Answer: The fold IC50 on wildtype K-Ras against that for K-Ras(G12D) was over 20 fold.
